Patent publication US20250034594A1, “RNA-GUIDED GENOME RECOMBINEERING AT KILOBASE SCALE” (THE BOARD OF TRUSTEES OF THE LELAND STANFORD JUNIOR …, priority 2021, published 2025)

Key:
[1] = test system: endogenous genome targets (ACTB, HSP90AA1); experiment: Arrayed SSAP library screening, mKate knock-in assay (editing efficiency); assay type: cell-based; settings: average of HSP90 and ACTB, 3 days after transfection; for Editing Efficiency (Normalized, Average, two targets): fold over negative control (Flag_HA); for Editing Efficiency (Absolute, Average, two targets): percent of mKate knock-in
Experimental: Arrayed SSAP library screening on endogenous genome targets (ACTB. HSP90AA1) using mKate knock-in assay.
SSAP-encoding plasmids were purified and quantified.
(§1) Each SSAP encoding plasmid was tested in duplicate, including a negative control (same plasmid encoding Flag_HA which is not expected to promote gene editing). Transfections were in 96-well plates and transfection efficiency was estimated to be 50%.
(§2) Three days after transfection, mKate positive cells and cell viability were quantified across all replicates, along with positive (original RecT SSAP) and negative (Flag-HA control protein) controls. […] At the same time, the cell viability was measured by live cell counts via flow cytometry, to help quantify the fitness effect of SSAP on mammalian cells.
(§3) SSAP proteins are identified by Uniparc deposit number and SEQ ID NO. Alignment numbers correspond to SSAPs in FIGS. 58, 59, and 60.

mammalian cells = experiment: Arrayed SSAP library screening, cell viability by live cell counts via flow cytometry; assay type: cell-based
Experimental: as §1, §2, §3

| Molecule | Editing Efficiency (Normalized, Average, two targets) [1] | Editing Efficiency (Absolute, Average, two targets) [1] | Cell Viability (Average, two targets) (mammalian cells) |
| --- | --- | --- | --- |
| SSAP_152: SEQ ID NO: 321; Clostridiaceae bacterium (protein, listed as Clostridiaceae bacterium) SNLKKALKTNETKGNSVTVSKAYAMKQLMIKMKGEITSALPTNLSSERFEKVALTAFNSNPKLQKCDPRTFIAAMMQSAQLGLEPNTALGLAYLIPYEVKGINKVQFQIGYKGLLELANRSGKLKTLYAHEVRENDEFDIDYGLEQKLIHKPLLKGNRGNVIGYYAVYHLEPSGYNFVFMTYDEVLEHGKKYSKSFEGGVWEKEFDSMAKKTVIKKLLKYAPLSIEMQKAIVFDESVKGSIDSDMLLVDKEDESIEGSELN | 6.574 | 16.25 | 1.159 |
| SSAP_173: SEQ ID NO: 342; Tyzzerella nexilis (protein, listed as Tyzzerella nexilis) AGVKEELAKKAESTKGETKLTKSMSIADLIKAMEPEIKKALPEVITPERFTRMALSALNTTPKLRECTQMSFLAALMNAAQLGLEPNTPLGQAYLIPYNNKGVMECQFQIGYKGLIDLSYRNPQMQIISAQAVYENDDFSYELGLNPKLEHCPTLGERGEVRLFYGFFKLVNGGFGFEVMSKTAMDEYAKEYSKAFDSSFSPWKSNYIGMAKKTVIKQALKYAPLKTDFRKALSNDETIKTELSDDMSDIHGEEIWDVEYQEKTA | 4.674 | 11.55 | 0.8787 |
| SSAP_29: SEQ ID NO: 198 (protein) STALATLAGKLAERVGMDSVDPQELITTLRQTAFKGDASDAQFIALLIVANQYGLNPWTKEIYAFPDKQNGIVPVVGVDGWSRIINENQQFDGMDFEQDDESCTCRIYRKDRNHPICVTEWMDECRRAPFKTREGREITGPWQSHPKRMLRHKAMIQCARLAFGFAGIYDKDEAERIVENTAYTTERQPERDITPVNEETMSEINALLTSMEKTWDDDLLPLCSQIFRRYIRASSELSQAEAEKVLGFLKQKATEQKVAA | 5.204 | 12.9225 | 1.131 |
| SSAP_67: SEQ ID NO: 236 (protein) TSQQLDTTHTINQQVTTFRHTLVQMKNEIAAALPAHMTGDRFLRLILTEVRKNPELAECSTESIFGGILTAAALGLEPGLNGECWLIPRKVGKGPGSRKEATFQVGYKGIIKLFWQNPLASYLDTGVVYANDAWKFRKGLDPILEHTPATGDRGAVRGYYAVVGLTTGARIFDFFTPKQISALRGTAGPNGGISDPEHWMERKTALLQVMKMAPKSTDLASAASVDGTVQTVEAAAQVAAASTGPVNPTTGEVLEAEPVEGGAA | 4.616 | 11.4625 | 1.088 |
| SSAP_10: SEQ ID NO: 179; Bet Escherichia coli (protein, listed as Escherichia coli) STALATLAGKLAERVGMDSVDPQELITTLRQTAFKGDASDAQFIALLIVANQYGLNPWTKEIYAFPDKQNGIVPVVGVDGWSRIINENQQFDGMDFEQDNESCTCRIYRKDRNHPICVTEWMDECRREPFKTREGREITGPWQSHPKRMLRHKAMIQCARLAFGFAGIYDKDEAERIVENTAYTAERQPERDITPVNNETMQEINTLLIALDKTWDDDLLPLCSQIFRRDIRASSELTQAEAVKALGFLKQKATEQKVAA | 5.75 | 14.25 | 1.237 |
